Test [1] deals with T1, human DR4 (Death Receptor 4), cell surface expressed on human tumor cell lines (human, UniProt O00220 24-468).
T1 construct: also called TNFRSF10A; TRAIL-R1
T1 sequence: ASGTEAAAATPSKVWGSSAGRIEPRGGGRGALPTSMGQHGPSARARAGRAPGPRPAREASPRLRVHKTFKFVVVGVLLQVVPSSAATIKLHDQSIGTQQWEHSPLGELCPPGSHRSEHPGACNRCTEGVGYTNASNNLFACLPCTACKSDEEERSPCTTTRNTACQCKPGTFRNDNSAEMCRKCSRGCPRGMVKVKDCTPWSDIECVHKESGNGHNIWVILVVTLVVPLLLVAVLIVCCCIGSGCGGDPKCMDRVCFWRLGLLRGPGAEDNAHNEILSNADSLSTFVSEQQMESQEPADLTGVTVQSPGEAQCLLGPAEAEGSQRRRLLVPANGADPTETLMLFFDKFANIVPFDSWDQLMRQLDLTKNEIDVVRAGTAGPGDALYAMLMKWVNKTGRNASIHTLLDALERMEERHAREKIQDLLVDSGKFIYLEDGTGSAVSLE
As to the kind of experiment: flow cytometry, MDA-MB-231 cells, average ± SEM; MDA-MB-231 cells, up to 90 µg/mL, average of N = 2. For orientation: A flow cytometer gives signals particle by particle.

The target in test [2] is T1, human DR4 (Death Receptor 4), cell …. The test can be described thus: flow cytometry, MDA-MB-231 cells, N = 2; MDA-MB-231 cells, up to 90 µg/mL, N = 2.
Test [3] has the same target. The test can be described thus: flow cytometry, MDA-MB-231 cells, N = 1; MDA-MB-231 cells, up to 90 µg/mL, N = 1.
The target is the same in test [4]. As to the kind of experiment: flow cytometry on OPM-2 cells (endogenous DR4), gMFI PE. The protocol: Immunol. […] Human lung fibroblasts and CAFs (50,000 cells/well) were seeded in 96-Well round bottom plates (Greiner Bio-one, Cat #650101). Antibody dilutions were prepared using fluorescence-activated cell sorting (FACS) buffer, consisting of phosphate buffer saline (PBS, Lonza, Cat #BE17-517Q)+1% Bovine Serum Albumin (BSA, Roche, Cat #10735086001)+0.02% Sodium Azide (Bio-World, Cat #41920044-3). Plates were centrifuged, supernatant was removed, cells were resuspended in 50 μL of human Fc Block (BD, Cat #564220, diluted 1:100 in FACS buffer) and 50 μL of viability stain TO-PRO-3 Iodide (Thermo Fisher, Cat #T3605, diluted 1: 25,000 in FACS buffer), and incubated for 15 min at 4° C. Plates were washed three times with FACS buffer. […] Antibody binding to viable cells (TO-PRO-3 negative) was analyzed by flow cytometry on a FACSCelesta™ (BD biosciences) and data were processed using FlowJo_v10.8.1 (FlowJo LLC). Geomean fluorescence intensity, gMFI, was determined and visualized using GraphPad Prism. Binding curves were analyzed using nonlinear regression analysis. […]
Binding of DR4-specific antibodies BisG1-b12-FEAL/DR4-T1014A04-FEAR, BisG1-b12-FEAL/DR4-chCTB007-FEAR, IgG1-DR4-chCTB007-FEAR and IgG1-DR4-T1014A04-FEAR to cell surface expressed human DR4 was analyzed by flow cytometry using the human cancer cell line OPM-2 (DSMZ, Cat #ACC 50), which endogenously expresses DR4.

The target is the same in test [5]. As to the kind of experiment: flow cytometry, MDA-MB-231 cells, N = 1.
Test [6] shares this target. The test can be described thus: flow cytometry, MDA-MB-231 cells, average ± SEM.
Test [7] has the same target. As to the kind of experiment: flow cytometry, MDA-MB-231 cells, N = 2.

B1: BisG1-b12-FEAL/DR4-T1014A04-FEAR (bispecific antibody, human IgG1, kappa, lambda)
heavy 1: QVQLVQSGAEVKKPGASVKVSCQASGYRFSNFVIHWVRQAPGQRFEWMGWINPYNGNKEFSAKFQDRVTFTADTSANTAYMELRSLRSADTAVYYCARVGPYSWDDSPQDNYYMDVWGKGTTVIVSSASTKGPSVFPLAPSSKSTSGGTAALGCLVKDYFPEPVTVSWNSGALTSGVHTFPAVLQSSGLYSLSSVVTVPSSSLGTQTYICNVNHKPSNTKVDKRVEPKSCDKTHTCPPCPAPEFEGGPSVFLFPPKPKDTLMISRTPEVTCVVVAVSHEDPEVKFNWYVDGVEVHNAKTKPREEQYNSTYRVVSVLTVLHQDWLNGKEYKCKVSNKALPAPIEKTISKAKGQPREPQVYTLPPSREEMTKNQVSLTCLVKGFYPSDIAVEWESNGQPENNYKTTPPVLDSDGSFLLYSKLTVDKSRWQQGNVFSCSVMHEALHNHYTQKSLSLSPG
light 1: EIVLTQSPGTLSLSPGERATFSCRSSHSIRSRRVAWYQHKPGQAPRLVIHGVSNRASGISDRFSGSGSGTDFTLTITRVEPEDFALYYCQVYGASSYTFGQGTKLERKRTVAAPSVFIFPPSDEQLKSGTASVVCLLNNFYPREAKVQWKVDNALQSGNSQESVTEQDSKDSTYSLSSTLTLSKADYEKHKVYACEVTHQGLSSPVTKSFNRGEC
heavy 2: EVQLVQSGADVKRPGASVKVSCKISGDSFNAYFIHWVRQAPGQGLEWMGWFNPDSGTADSAQKFHGRVTMTRDTSSSTAFLELSRLRSDDTAVYYCVRQHRGNTFAPWGRGTMVTVSSASTKGPSVFPLAPSSKSTSGGTAALGCLVKDYFPEPVTVSWNSGALTSGVHTFPAVLQSSGLYSLSSVVTVPSSSLGTQTYICNVNHKPSNTKVDKRVEPKSCDKTHTCPPCPAPEFEGGPSVFLFPPKPKDTLMISRTPEVTCVVVAVSHEDPEVKFNWYVDGVEVHNAKTKPREEQYNSTYRVVSVLTVLHQDWLNGKEYKCKVSNKALPAPIEKTISKAKGQPREPQVYTLPPSREEMTKNQVSLTCLVKGFYPSDIAVEWESNGQPENNYKTTPPVLDSDGSFFLYSRLTVDKSRWQQGNVFSCSVMHEALHNHYTQKSLSLSPG
light 2: QSVLTQPPSASGSPGQSVTISCTGTTSDVGGYNYVSWYQQHPGKAPKLMIYGVNQRPSGVPDRFSGSKSGNTASLTVSGLQAEDEADYYCSSYAGSNNWVFGGGTKLTVLGQPKAAPSVTLFPPSSEELQANKATLVCLISDFYPGAVTVAWKADSSPVKAGVETTTPSKQSNNKYAASSYLSLTPEQWKSHRSYSCQVTHEGSTVEKTVAPTECS
notes: Fab-arm exchange of IgG1-b12-FEAL and IgG1-DR4-T1014A04-FEAR
Regarding B1, the EC50 in test [1] came out at 5.35 mg/L; in test [2], 6.36 mg/L; in test [3], 4.33 mg/L.

B2: IgG1-DR4-chCTB007-FEAR (antibody, V domains shown)
VH: EVQLQQSGAELVKPGASVKLSCTASGFNIKDTYMHWVKQRPEQGLEWIGRIDPANGNTKYDPKFQGKATITADTSSNTAYLQLSSLTSEDTAVYYCAYYYVSNAWFTYWGQGTLVTVSA
VL: DIQMTQSPASLSVSVGETVTITCRASENIYSNLEWYQQKQGKSPQLLVYAATNLADGVPSRFSGSGSGTQYSLKINSLQSEDFGSYYCQHFWGTWTFGGGTKLEIKR
notes: Prior art DR4 clone (US20090136503A1)
On to B2, for which the “EC50 (read off the curve)” value in test [4] is roughly 0.05 mg/L. For the same molecule, the EC50 in test [5] turned out to be 0.04 mg/L; in test [6] it was 0.06 mg/L; in test [7] it was 0.08 mg/L. Moreover, the “Max MFI (at 90 µg/mL)” value turned out to be 3750 MFI in test [5], 3620 MFI in test [6] and 3480 MFI in test [7].

Broadly, the EC50 is the concentration needed to bring the measured effect to its halfway point. In general, EC50 (read off the curve) refers to the concentration needed to bring the measured effect to its halfway point. Read a low EC50 (read off the curve) as a more potent agent.

For the origin of these results see patent US20250002610A1 (Genmab, published 2025).
